The values that follow come from article PMC3566092.

The target in test [1] is Recombinant His-tagged WIP1ΔEx6 (UniProt O15297).
The target is the same in test [2]. The source holds these as a separate data set.

GST-Tax, sequence (P03409 whole entry): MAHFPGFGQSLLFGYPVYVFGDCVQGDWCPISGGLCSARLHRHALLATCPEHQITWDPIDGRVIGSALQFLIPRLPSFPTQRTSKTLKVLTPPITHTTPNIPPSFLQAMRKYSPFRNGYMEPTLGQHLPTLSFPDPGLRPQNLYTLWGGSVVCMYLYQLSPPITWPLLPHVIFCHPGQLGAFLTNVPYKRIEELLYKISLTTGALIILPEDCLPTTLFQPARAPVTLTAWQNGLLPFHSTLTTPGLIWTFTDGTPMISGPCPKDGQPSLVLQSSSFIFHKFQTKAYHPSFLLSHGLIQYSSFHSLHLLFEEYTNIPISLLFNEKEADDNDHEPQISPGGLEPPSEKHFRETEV

In the case of “GST-Tax (from UniProt P03409 1-353) (natural protein)”, the in vitro phosphatase assay: free phosphate released from the H2AX (pS139) phosphopeptide by His-WIP1 (20 ng) with GST-Tax (100 ng), against His-WIP1 alone or with GST in test [1] worked out at 2 fold. Besides, the in vitro phosphatase assay: free phosphate released from the p38 (pT180) phosphopeptide by His-WIP1 with GST-Tax, against His-WIP1 alone in test [2] worked out at 2 fold.
